Here are results for one molecule from patent publication US20120148571A1 (Ablynx, published 2012).

The target in this assay is T1, human serum albumin (human, UniProt P02768 25-609).
T1 construct: also called HSA; humans serum albumin
Nature of the assay: SPR (Biacore), human serum albumin immobilized on CM5 chip, periplasmic Nanobody preparation injected in running buffer of pH 5, pH 6, pH 7 or HBS-EP+.

Description: Human serum albumin is immobilized on a CM5 sensor chip surface via amine coupling using NHS/EDC for activation and ethanolamine for deactivation (Biacore amine coupling kit)
Approximately 1000 RU of cynomolgus and humans serum albumin respectively is immobilized. Experiments are performed at 25° C. […] This mixture is brought to pH7, pH6 and pH5 by adding HCl or NaOH (dependent on the pH of the mixture measured). Standard buffer HBS-EP+Periplasmic extracts or purified Nanobodies are diluted in running buffers of pH7, pH6 and pH5. The samples are injected for 1 min at a flow rate of 45 ul/min over the activated and reference surfaces. Those surfaces are regenerated with a 3 s pulse of glycine-HCl pH1.5+0.1% P20. Evaluation is done using Biacore T100 evaluation software.

B1: Nanobody 4A1 (VHH)
VHH: EVQLVESGGGLVQPEGSLRLSCRASGSIFSINTMGWYRQPPGKEREFVARIYPGITHYADSVKGRFTISRDNAKNTVYLQMNSLKPEDTAVYYCFYYYDDRNYWGEGTLVTVSS
notes: Injected as a periplasmic preparation of soluble Nanobody
Turning to B1, the binding result is “binds”.
